Reference: patent US20230416365A1 (Hoffmann-La Roche, published 2023)

Biological target: T1, Hu N(A2-B2)A-avi-His (human, biotinylated at the avi tag (Example 2.2))
T1 construct: also called hu N(A2-B2)A-avi-His B; CEACAM5-based antigen
T1 chain: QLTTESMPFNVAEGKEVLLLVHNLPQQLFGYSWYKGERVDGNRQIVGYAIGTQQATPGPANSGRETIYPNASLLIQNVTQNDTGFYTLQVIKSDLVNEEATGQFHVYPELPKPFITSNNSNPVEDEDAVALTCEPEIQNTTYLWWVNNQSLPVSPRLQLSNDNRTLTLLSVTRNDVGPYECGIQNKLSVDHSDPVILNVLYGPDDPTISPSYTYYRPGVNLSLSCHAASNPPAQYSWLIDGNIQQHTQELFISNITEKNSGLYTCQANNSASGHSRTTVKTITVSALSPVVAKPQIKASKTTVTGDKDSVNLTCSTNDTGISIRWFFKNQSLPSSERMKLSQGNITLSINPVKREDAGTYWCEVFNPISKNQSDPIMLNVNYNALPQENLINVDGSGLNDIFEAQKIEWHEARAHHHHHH
Test: SPR, ProteOn XPR36, antigen on NLC chip, bispecific as analyte
Experimental: Immobilization of recombinant antigens (ligand): Antigens were diluted with PBST (10 mM phosphate, 150 mM sodium chloride pH 7.4, 0.005% Tween 20) to 10 μg/ml, then injected at 30 μl/minute at varying contact times, to achieve immobilization levels of about 400, 800, and 1600 response units (RU) in vertical orientation. […] Buffer (PBST) was injected along the sixth channel to provide an “in-line” blank for referencing. Association rate constants (kon) and dissociation rate constants (koff) were calculated using a simple one-to-one Langmuir binding model in ProteOn Manager v3.1 software by simultaneously fitting the association and dissociation sensorgrams. The equilibrium dissociation constant (KD) was calculated as the ratio koff/kon.

B1: CEA-CD28(SA) 1+1 format (Molecule M) (bispecific antibody, human IgG1, kappa, L234A L235A)
heavy 1: not shown
light 1: not shown
heavy 2: QAVLTQPASLSASPGASASLTCTLRRGINVGAYSIYWYQQKPGSPPQYLLRYKSDSDKQQGSGVSSRFSASKDASANAGILLISGLQSEDEADYYCMIWHSGASAVFGGGTKLTVLSSASTKGPSVFPLAPSSKSTSGGTAALGCLVKDYFPEPVTVSWNSGALTSGVHTFPAVLQSSGLYSLSSVVTVPSSSLGTQTYICNVNHKPSNTKVDKKVEPKSCDKTHTCPPCPAPEAAGGPSVFLFPPKPKDTLMISRTPEVTCVVVDVSHEDPEVKFNWYVDGVEVHNAKTKPREEQYNSTYRVVSVLTVLHQDWLNGKEYKCKVSNKALGAPIEKTISKAKGQPREPQVCTLPPSRDELTKNQVSLSCAVKGFYPSDIAVEWESNGQPENNYKTTPPVLDSDGSFFLVSKLTVDKSRWQQGNVFSCSVMHEALHNHYTQKSLSLSP
light 2: EVQLVESGGGLVQPGRSLRLSCAASGFTVSSYWMHWVRQAPGKGLEWVGFIRNKANGGTTEYAASVKGRFTISRDDSKNTLYLQMNSLRAEDTAVYYCARDRGLRFYFDYWGQGTTVTVSSASVAAPSVFIFPPSDEQLKSGTASVVCLLNNFYPREAKVQWKVDNALQSGNSQESVTEQDSKDSTYSLSSTLTLSKADYEKHKVYACEVTHQGLSSPVTKSFNRGEC
notes: huIgG1 PG-LALA CrossFab, knob-into-hole; also called P1AE3127; anti-CEA (Medi-565) / anti-CD28 (TGN1412)
Kd: 0.29 nM
